Experiments:
[1] = target: T1, human CD3 E&D complex protein (Sino Biological Inc., CT026H0323H) (human, UniProt P07766 23-126; P04234 22-105); assay: BLI, antibody on sensor
T1 construct: bought heterodimer; also called human CD3 protein (CT026H0323H)
Procedure: (§1) 100 μl SD buffer, various antibodies, human CD3 E&D complex protein (Sino Biological Inc., CT026H0323H), and cynomolgus monkey CD3 E&D complex protein (Sino Biological Inc., CT032-00323H) were added into 96-well black polystyrene semi-quantitative micro-well plate (Greiner, 675076) respectively. Fortebio Octet Red 96 was used for detection, and the sensor position was selected according to the sample position. The setting parameters of the instrument are as follows: operation steps: Baseline, Loading-1 nm, Baseline, Association and Dissociation; the operation time of each step depends on the speed of sample association and dissociation. The rotational speed is 1000 rpm and the temperature is 30° C. ForteBio Octet analysis software was used to analyze KD value.

[2] = target: T2, cynomolgus monkey CD3 E&D complex protein (Sino Biological Inc., CT032-00323H) (cynomolgus monkey, UniProt Q95LI5 22-117; Q95LI8 22-105); assay: BLI, antibody on sensor
T2 construct: bought heterodimer
Procedure: as §1

T2 sequence (Q95LI5 22-117, chain 1 of 2): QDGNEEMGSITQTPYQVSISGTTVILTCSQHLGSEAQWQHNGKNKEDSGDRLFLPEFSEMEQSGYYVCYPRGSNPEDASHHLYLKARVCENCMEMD
T2 sequence (Q95LI8 22-105, chain 2 of 2): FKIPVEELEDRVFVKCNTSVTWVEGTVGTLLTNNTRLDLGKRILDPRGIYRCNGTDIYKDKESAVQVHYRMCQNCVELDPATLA
T1 sequence (P07766 23-126, chain 1 of 2): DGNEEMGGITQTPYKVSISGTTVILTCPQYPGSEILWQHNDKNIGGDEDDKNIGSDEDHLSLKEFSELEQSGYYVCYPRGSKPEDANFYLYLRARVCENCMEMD
T1 sequence (P04234 22-105, chain 2 of 2): as the sequence (Q95LI8 22-105, chain 2 of 2) above, with V5I, K15N, V20I, T32S, N33D, N34I, A64T, N74S, L83V counted along it

B1: hzsp34.25 (antibody, human IgG1, lambda, L234A L235A, V domains shown)
VH: EVQLVESGGGLVQPGGSLKLSCAASGFTFNTYAMNWVRQASGKGLEWVARIRSKYNNYATYYADSVKDRFTISRDDSKSTLYLQMNSLKTEDTAVYYCARHGNFGQSYVSWFAYWGQGTTVTVSS
VL: QAVVTQEPSLTVSPGGTVTLTCRSSTGAVTTSNYANWVQQKPGQAPRGLIGGTNKRAPGVPARFSGSLLGDKAALTLLGAQPEDEAEYYCALWYSNLWVFGQGTKLTVLG
notes: IgG1 L234A L235A, lambda
Kd [1]: 1.17 nM
koff [1]: 0.00273 s⁻¹
kon [1]: 2.35e+06 M⁻¹ s⁻¹
Kd [2]: 0.857 nM
koff [2]: 0.000913 s⁻¹
kon [2]: 1.07e+06 M⁻¹ s⁻¹

B2: hzsp34.13 (antibody, human IgG1, lambda, L234A L235A, V domains shown)
VH: EVQLVESGGGLVQPGGSLKLSCAASGFTFNTYAMNWVRQASGKGLEWVGRIRSKYNNYATYYADSVKDRFTISRDDSKSTLYLQMNSLKTEDTAVYYCARHGNFGNSYVSWFAYWGQGTTVTVSS
VL: QAVVTQEPSLTVSPGGTVTLTCRSSTGAVTTSNYANWVQQKPGQAPRTLIGGTNKRAPGVPARFSGSLLGGKAALTLLGAQPEDEAEYYCALWYSNLWVFGQGTKLTVLG
notes: IgG1 L234A L235A, lambda
Kd [1]: 4.33 nM
koff [1]: 0.00466 s⁻¹
kon [1]: 1.08e+06 M⁻¹ s⁻¹
Kd [2]: 1.75 nM
koff [2]: 0.00164 s⁻¹
kon [2]: 937000 M⁻¹ s⁻¹

B3: hzsp34.33 (antibody, human IgG1, kappa, L234A L235A, V domains shown)
VH: EVQLVESGGGLVQPGGSLKLSCAASGFTFNTYAMNWVRQASGKGLEWVGRIRSKYNNYATYYADSVKDRFTISRDDSKSTLYLQMNSLKTEDTAVYYCARHGNFGNSYVSWFAYWGQGTTVTVSS
VL: EIVMTQSPATLSVSPGERATLSCRSSTGAVTTSNYANWVQQKPGQAPRLLIGGTNKRAPGVPARFSGSGSGTEFTLTISSLQSEDFAVYYCALWYSNLWVFGQGTKLTVLR
notes: IgG1 L234A L235A, kappa
binding result [1]: no binding
binding result [2]: no binding

B4: hzsp34.27 (antibody, human IgG1, kappa, L234A L235A, V domains shown)
VH: EVQLVESGGGLVQPGGSLKLSCAASGFTFNTYAMNWVRQASGKGLEWVGRIRSKYNNYATYYADSVKDRFTISRDDSKNTLYLQMNSLKTEDTAVYYCARHGNFGNSYVSWFAYWGQGTTVTVSS
VL: EIVMTQSPATLSVSPGERATLSCRSSTGAVTTSNYANWYQQKPGQAPRLLIYGTNKRAPGIPARFSGSGSGTEFTLTISSLQSEDFAVYYCALWYSNLWVFGQGTKLTVLR
notes: IgG1 L234A L235A, kappa
binding result [1]: no binding
binding result [2]: no binding

B5: hzsp34.30 (antibody, human IgG1, kappa, L234A L235A, V domains shown)
VH: EVQLVESGGGLVQPGGSLKLSCAASGFTFNTYAMNWVRQASGKGLEWVARIRSKYNNYATYYADSVKDRFTISRDDSKSTLYLQMNSLKTEDTAVYYCARHGNFGQSYVSWFAYWGQGTTVTVSS
VL: EIVMTQSPATLSVSPGERATLSCRSSTGAVTTSNYANWYQQKPGQAPRLLIYGTNKRAPGIPARFSGSGSGTEFTLTISSLQSEDFAVYYCALWYSNLWVFGQGTKLTVLR
notes: IgG1 L234A L235A, kappa
binding result [1]: no binding
binding result [2]: no binding

B6: hzsp34.29 (antibody, human IgG1, kappa, L234A L235A, V domains shown)
VH: EVQLVESGGGLVQPGGSLKLSCAASGFTFNTYAMNWVRQASGKGLEWVGRIRSKYNNYATYYADSVKDRFTISRDDSKSTLYLQMNSLKTEDTAVYYCARHGNFGQSYVSWFAYWGQGTTVTVSS
VL: EIVMTQSPATLSVSPGERATLSCRSSTGAVTTSNYANWYQQKPGQAPRLLIYGTNKRAPGIPARFSGSGSGTEFTLTISSLQSEDFAVYYCALWYSNLWVFGQGTKLTVLR
notes: IgG1 L234A L235A, kappa
binding result [1]: no binding
binding result [2]: no binding

B7: hzsp34.37 (antibody, human IgG1, kappa, L234A L235A, V domains shown)
VH: EVQLVESGGGLVQPGGSLKLSCAASGFTFNTYAMNWVRQASGKGLEWVGRIRSKYNNYATYYADSVKDRFTISRDDSKNTLYLQMNSLKTEDTAVYYCARHGNFGNSYVSWFAYWGQGTTVTVSS
VL: EIVMTQSPATLSVSPGERATLSCRSSTGAVTTSNYANWVQQKPGQAPRGLIGGTNKRAPGVPARFSGSGSGTEFTLTISSLQSEDFAVYYCALWYSNLWVFGQGTKLTVLR
notes: IgG1 L234A L235A, kappa
Kd [1]: 9.16 nM
koff [1]: 0.00399 s⁻¹
kon [1]: 436000 M⁻¹ s⁻¹
Kd [2]: 6.24 nM
koff [2]: 0.002 s⁻¹
kon [2]: 321000 M⁻¹ s⁻¹

B8: hzsp34.32 (antibody, human IgG1, kappa, L234A L235A, V domains shown)
VH: EVQLVESGGGLVQPGGSLKLSCAASGFTFNTYAMNWVRQASGKGLEWVGRIRSKYNNYATYYADSVKDRFTISRDDSKNTLYLQMNSLKTEDTAVYYCARHGNFGNSYVSWFAYWGQGTTVTVSS
VL: EIVMTQSPATLSVSPGERATLSCRSSTGAVTTSNYANWVQQKPGQAPRLLIGGTNKRAPGVPARFSGSGSGTEFTLTISSLQSEDFAVYYCALWYSNLWVFGQGTKLTVLR
notes: IgG1 L234A L235A, kappa
binding result [1]: no binding
binding result [2]: no binding

B9: hzsp34.12 (antibody, human IgG1, lambda, L234A L235A, V domains shown)
VH: EVQLVESGGGLVQPGGSLKLSCAASGFTFNTYAMNWVRQASGKGLEWVGRIRSKYNNYATYYADSVKDRFTISRDDSKNTLYLQMNSLKTEDTAVYYCARHGNFGNSYVSWFAYWGQGTTVTVSS
VL: QAVVTQEPSLTVSPGGTVTLTCRSSTGAVTTSNYANWVQQKPGQAPRTLIGGTNKRAPGVPARFSGSLLGGKAALTLLGAQPEDEAEYYCALWYSNLWVFGQGTKLTVLG
notes: IgG1 L234A L235A, lambda
Kd [1]: 6.19 nM
koff [1]: 0.00396 s⁻¹
kon [1]: 640000 M⁻¹ s⁻¹
Kd [2]: 4.73 nM
koff [2]: 0.00226 s⁻¹
kon [2]: 479000 M⁻¹ s⁻¹

B10: hzsp34.35 (antibody, human IgG1, kappa, L234A L235A, V domains shown)
VH: EVQLVESGGGLVQPGGSLKLSCAASGFTFNTYAMNWVRQASGKGLEWVARIRSKYNNYATYYADSVKDRFTISRDDSKSTLYLQMNSLKTEDTAVYYCARHGNFGQSYVSWFAYWGQGTTVTVSS
VL: EIVMTQSPATLSVSPGERATLSCRSSTGAVTTSNYANWVQQKPGQAPRLLIGGTNKRAPGVPARFSGSGSGTEFTLTISSLQSEDFAVYYCALWYSNLWVFGQGTKLTVLR
notes: IgG1 L234A L235A, kappa
binding result [1]: no binding
binding result [2]: no binding

B11: hzsp34.39 (antibody, human IgG1, kappa, L234A L235A, V domains shown)
VH: EVQLVESGGGLVQPGGSLKLSCAASGFTFNTYAMNWVRQASGKGLEWVGRIRSKYNNYATYYADSVKDRFTISRDDSKSTLYLQMNSLKTEDTAVYYCARHGNFGQSYVSWFAYWGQGTTVTVSS
VL: EIVMTQSPATLSVSPGERATLSCRSSTGAVTTSNYANWVQQKPGQAPRGLIGGTNKRAPGVPARFSGSGSGTEFTLTISSLQSEDFAVYYCALWYSNLWVFGQGTKLTVLR
notes: IgG1 L234A L235A, kappa
Kd [1]: 7.85 nM
koff [1]: 0.00354 s⁻¹
kon [1]: 451000 M⁻¹ s⁻¹
Kd [2]: 7.1 nM
koff [2]: 0.00203 s⁻¹
kon [2]: 286000 M⁻¹ s⁻¹

B12: hzsp34.44 (antibody, human IgG1, kappa, L234A L235A, V domains shown)
VH: EVQLVESGGGLVQPGGSLKLSCAASGFTFNTYAMNWVRQASGKGLEWVGRIRSKYNNYATYYADSVKDRFTISRDDSKSTLYLQMNSLKTEDTAVYYCARHGNFGQSYVSWFAYWGQGTTVTVSS
VL: EIVMTQSPATLSVSPGERATLSCRSSTGAVTTSNYANWVQQKPGQAPRGLIGGTNKRAPGVPARFSGSGSGDEFTLTISSLQSEDFAVYYCALWYSNLWVFGQGTKLTVLR
notes: IgG1 L234A L235A, kappa
Kd [1]: 16.5 nM
koff [1]: 0.00581 s⁻¹
kon [1]: 353000 M⁻¹ s⁻¹
Kd [2]: 12.1 nM
koff [2]: 0.00293 s⁻¹
kon [2]: 241000 M⁻¹ s⁻¹

B13: hzsp34.34 (antibody, human IgG1, kappa, L234A L235A, V domains shown)
VH: EVQLVESGGGLVQPGGSLKLSCAASGFTFNTYAMNWVRQASGKGLEWVGRIRSKYNNYATYYADSVKDRFTISRDDSKSTLYLQMNSLKTEDTAVYYCARHGNFGQSYVSWFAYWGQGTTVTVSS
VL: EIVMTQSPATLSVSPGERATLSCRSSTGAVTTSNYANWVQQKPGQAPRLLIGGTNKRAPGVPARFSGSGSGTEFTLTISSLQSEDFAVYYCALWYSNLWVFGQGTKLTVLR
notes: IgG1 L234A L235A, kappa
binding result [1]: no binding
binding result [2]: no binding

B14: hzsp34.7 (antibody, human IgG1, lambda, L234A L235A, V domains shown)
VH: EVQLVESGGGLVQPGGSLKLSCAASGFTFNTYAMNWVRQASGKGLEWVGRIRSKYNNYATYYADSVKDRFTISRDDSKNTLYLQMNSLKTEDTAVYYCARHGNFGNSYVSWFAYWGQGTTVTVSS
VL: QAVVTQEPSLTVSPGGTVTLTCRSSTGAVTTSNYANWFQQKPGQAPRTLIYGTNKRAPWTPARFSGSLLGGKAALTLLGAQPEDEAEYYCALWYSNLWVFGQGTKLTVLG
notes: IgG1 L234A L235A, lambda
binding result [1]: no binding
Kd [2]: 1.66 nM
koff [2]: 0.000463 s⁻¹
kon [2]: 279000 M⁻¹ s⁻¹

B15: hzsp34.28 (antibody, human IgG1, kappa, L234A L235A, V domains shown)
VH: EVQLVESGGGLVQPGGSLKLSCAASGFTFNTYAMNWVRQASGKGLEWVGRIRSKYNNYATYYADSVKDRFTISRDDSKSTLYLQMNSLKTEDTAVYYCARHGNFGNSYVSWFAYWGQGTTVTVSS
VL: EIVMTQSPATLSVSPGERATLSCRSSTGAVTTSNYANWYQQKPGQAPRLLIYGTNKRAPGIPARFSGSGSGTEFTLTISSLQSEDFAVYYCALWYSNLWVFGQGTKLTVLR
notes: IgG1 L234A L235A, kappa
binding result [1]: no binding
Kd [2]: 2.82 nM
koff [2]: 0.00117 s⁻¹
kon [2]: 415000 M⁻¹ s⁻¹

B16: hzsp34.43 (antibody, human IgG1, kappa, L234A L235A, V domains shown)
VH: EVQLVESGGGLVQPGGSLKLSCAASGFTFNTYAMNWVRQASGKGLEWVGRIRSKYNNYATYYADSVKDRFTISRDDSKSTLYLQMNSLKTEDTAVYYCARHGNFGNSYVSWFAYWGQGTTVTVSS
VL: EIVMTQSPATLSVSPGERATLSCRSSTGAVTTSNYANWVQQKPGQAPRGLIGGTNKRAPGVPARFSGSGSGDEFTLTISSLQSEDFAVYYCALWYSNLWVFGQGTKLTVLR
notes: IgG1 L234A L235A, kappa
Kd [1]: 12.6 nM
koff [1]: 0.00453 s⁻¹
kon [1]: 359000 M⁻¹ s⁻¹
Kd [2]: 7.92 nM
koff [2]: 0.00201 s⁻¹
kon [2]: 253000 M⁻¹ s⁻¹

— patent publication US20230374132A1 (Innovent, published 2023)
